US20230416726A1 (University of Washington, published 2023)

Target: T1, programmed cell death ligand 1 (PD-L1) (UniProt Q9NZQ7 19-239, limits assumed, biotinylated in the yeast display assays)
T1 construct: also called PD-Li
Assay: BLI, max binding signal versus PD-L1 concentration

T1 sequence (Q9NZQ7 19-239 limits assumed): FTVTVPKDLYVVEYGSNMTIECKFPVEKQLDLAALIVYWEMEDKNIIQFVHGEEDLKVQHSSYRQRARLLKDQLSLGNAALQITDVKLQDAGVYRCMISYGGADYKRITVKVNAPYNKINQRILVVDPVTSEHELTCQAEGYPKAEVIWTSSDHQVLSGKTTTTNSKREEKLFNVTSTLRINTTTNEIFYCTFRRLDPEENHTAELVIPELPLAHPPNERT

B1: pdl1_inp_1 (purified from E. coli) (designed binder)
chain: DLEEFFEECLKEAEEVRKEVLEGKARIQIKESVRKEDPEGGTYVCGVISLGPKGGKFHVVFHKEDPEGKEETLARFEFKVEGGKVELLELKSKDPELKKLAEKYAEKLLE
notes: Expressed as a monomer; Tested by BLI; not shown: C-terminal SNAC tag and 6xHis tag from the modified pET29b+ vector
B1 showed a Kd of 326 nM.
